Reference: the supplement of paper PMC9170038

System: MS2 coat protein
Assay: apparent KD of MS2 coat protein; designed switch direction (-1 OFF switch, 1 ON switch): -1; higher = weaker reporter binding
Method in brief: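 The reported apparent KD is a per-design median over clusters, from curve fits of normalised cluster fluorescence. Protein titrations used SNAP-549-labelled MS2 coat protein, doubled from 0.7 or 1.5 nM to 3 µM, in Tris-HCl pH 7.5 buffer with KCl, MgCl2, BSA, DTT, tRNA and Tween-20, with no input, 200 uM small-molecule ligand, or an oligonucleotide input. The RNA switches were transcribed on Illumina chips by stalled E. coli RNA polymerase.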

[1] = input ligand: microRNA oligo, concentration not stated
[2] = Eterna round: R95, input ligand: microRNA oligo, concentration not stated

Row | Sequence | apparent KD of MS2 coat protein (input ligand: FMN 200 uM) [nM] | apparent KD of MS2 coat protein (input ligand: none) [nM] | also measured
1 | AUUAUAUAGUUAGGAUAUUGAUUAUUAUUUUAACAUGAGGAUCACCCAUGUAGCCUUAUGUAUAACAAGAAGGAACAUUUAUUA [Title] (Eterna round: R96, puzzle: Exclusion NG 2) | – | – | apparent KD of MS2 coat protein [1]: 97.9 nM
2 | AUAAAUAAGGAGGAUAUCGUAUCGGAAACGAUACGAGAAGGUCUAACAUGAGGAUCACCCAUGUUCCUCAAUAA [Mat - Exclusion 6 - Eli Mod - D47] (puzzle: Exclusion 6) | – | – | apparent KD of MS2 coat protein [2]: 34.5 nM
3 | AUCGUGUGAGGAUAUCGAUGUUGGACGUCUAGGUCUGAGCGCGAGAAGGCACAUGAGGAUCACCCAUGUAAGGG [jl-ex4-4.24 ViennaUCT mod] (Eterna round: R97, puzzle: Exclusion 4) | 220 | 896 | –
4 | AAAACGUGAGGAUAUCCAAUAUAUGACAUGAGGAUCACCCAUGUUUCCACUCGUACCUCCGGAGAAGGCACAUUUU [Ex5 #79] (Eterna round: R97, puzzle: Exclusion 5) | 62.7 | 67 | –
5 | GCUCAACAUGAGGAUCACCCAUGUGAGGAUAUGCGAAUUUCAUCAAAAGAUGAAAUUUGCAGAAGGCACUGAGC [Omei Ex1 A35] (Eterna round: R97, puzzle: Exclusion 1) | 17.4 | 16.5 | –
6 | GUAGGGUCAGGAUAUACGGGCGGGAGGAUGUAUUGUAGUUGGUAGAAGGGACAUGAGGAUCACCCAUGUGAGAA [JR_Exclu4_Sub054] (puzzle: Exclusion 4) | – | – | apparent KD of MS2 coat protein [2]: 31 nM
7 | GAAGAAAAGGCAGGAUAUCAGAAACACAUGAUAAGGAGAUGCAACAUGAGGAUCACCCAUGUAAAUGAGAAGGGCCGCCCUUCC [Arbiis] (Eterna round: R96, puzzle: Exclusion NG 2) | – | – | apparent KD of MS2 coat protein [1]: 28 nM
8 | UGACACACCUGAGGAUAUUCUGAACGUUUCCCAGAAGAAGGUAGGUACAGCGGGAGCGCCACAUGAGGAUCACCCAUGUCUACC [Eternabot solution 46] (Eterna round: R96, puzzle: Exclusion NG 1) | 126 | 142 | apparent KD of MS2 coat protein [1]: 103 nM
9 | UUAAUAUAUCAGGAUAUGAUUAUAUGUGUUAAAUCAGAAGGGAUAACAUGAGGAUCACCCAUGUUGUGGAGUGA [JR_Ex6_Sub033] (Eterna round: R97, puzzle: Exclusion 6) | 303 | 92.8 | –
10 | UUAGUAUUGCAAGGAUAUGUUUAUGUUUAUUUUCCUCUUACAUGAGGAUCACCCAUGUUUAACUUACAGAAGGUGCUAUGAUUU [JR_ExcNG2_Sub032] (Eterna round: R96, puzzle: Exclusion NG 2) | 1120 | 1030 | apparent KD of MS2 coat protein [1]: 477 nM
11 | UCGUGAUUAGAGGAUAUAUUUUGAGUCAGAACAAUAGAAGGCUAAACAUGAGGAUCACCCAUGUAUGUGUAAAA [JR_Ex6_Sub063] (Eterna round: R97, puzzle: Exclusion 6) | 184 | 26.9 | –
12 | AUGAGGUUAGGAUAUACAUGAGGAUCACCCAUGUUGAAGGGUUAGGUAGGCGGAGCUGGUAGAAGGAACGGAGC [JR_Exclu3_Sub057] (puzzle: Exclusion 3) | – | – | apparent KD of MS2 coat protein [2]: 38.8 nM
13 | UUUUAGUCAGGAUAUACAUGAGGAUCACCCAUGUAAAAUUUUAAUUUAAUUUUAAGGUGUAGAAGGGACAAUAA [Ex3 #8] (Eterna round: R97, puzzle: Exclusion 3) | 32.2 | 31.3 | –
14 | AUCCUCUAGAAGGAUAUGCAGGUUGAAUAAACCGCAGAAGGUUUUACAUGAGGAUCACCCAUGUGUAUAACACA [Eternabot (L2) Solution 100] (Eterna round: R97, puzzle: Exclusion 6) | 230 | 165 | –
15 | ACAUGAGGAUCACCCAUGUAAACAUGAUGGCUGAUGUAGAGCUAGGAUAUGAGUGACUUUCUAUCUCAGAAGGAGCUUGACUGG [Deportation 44 - Jieux - Exclusion NG 3] (Eterna round: R96, puzzle: Exclusion NG 3) | 30.1 | 45.2 | apparent KD of MS2 coat protein [1]: 26.9 nM
16 | AUUUAGCAAGCGUGAUCCUACAUGAGGAUCACCCAUGUAGUUCGUCUUAUUUGAAGACAACACAAAAGUGUUGUCUU [Omei Mir OFFv1 B8] (Eterna round: R97, puzzle: Sensor, turn-off variant 1) | 355 | 212 | –
17 | CUUUUGUGAGGAUAUUCGUAGUAGGGUCAUGGUACUAUUACGGAGAAGGCACAUGAGGAUCACCCAUGUACCUU [EX4 #44] (Eterna round: R97, puzzle: Exclusion 4) | 25 | 15.8 | –
18 | AAUAAGUGAGGAUAUGCAAUAAUAAAUAAAAUAAUAAAUAAGCAGAAGGCACAUGAGGAUCACCCAUGUAAUAA [JMF's solution 1] (puzzle: Exclusion 4) | – | – | apparent KD of MS2 coat protein (Eterna round: R95, input ligand: FMN 200 uM): 29.2 nM; apparent KD of MS2 coat protein [2]: 20.8 nM; apparent KD of MS2 coat protein (Eterna round: R95, input ligand: none): 21.6 nM
19 | UUAAUUAAUUAAGCGCAAGAUCACAUGAGGAUCACCCAUGUAUAGGAUAUCAGCUCGUGUAGAGCUGAGAAGGAUACAUAGCGC [ExNG3/2-A3] (Eterna round: R96, puzzle: Exclusion NG 3) | 1030 | 143 | apparent KD of MS2 coat protein [1]: 184 nM
20 | UUUUAGCUAGGAUAUACAUUUUUUUUAUUAUCCUCAUUAUUACAUGAGGAUCACCCAUGUAGAAGGAGCAUUUU [My Design] (puzzle: Exclusion 2) | – | – | apparent KD of MS2 coat protein [2]: 219 nM
21 | GUUUCACAUGAGGAUCACCCAUGUGAGGAUAUGAAUUUGUUAACCGUAGUUAAUAGAUUCAGAAGGCGCGUGAU [JRxlusion 1- Jieux - Exclusion 1] (Eterna round: R97, puzzle: Exclusion 1) | 66.6 | 70.3 | –
22 | UUAAAUCAUGUAGGAUAUGCGUGGCGAAGCUAUGCAGAAGGACAUGAGGAUCACCCAUGUGCUUCCGUCUGAGUACAGACGGUA [Mat - Exclusion NG 1 - Mod of JL - D11] (Eterna round: R96, puzzle: Exclusion NG 1) | 221 | 101 | apparent KD of MS2 coat protein [1]: 106 nM
23 | GGUCCACAUGAGGAUCACCCAUGUUAGGAUAUCUCCCGCCUCCUCACUGGAGACGGACAGAGAAGGAACAUCAA [Vetibele] (puzzle: Exclusion 1) | – | – | apparent KD of MS2 coat protein [2]: 23.7 nM
24 | UUUAAUCGUGACAUGGGUGACAUGAGGAUCACCCAUGUCACAAGCUUUUUGCUCGUCUUAUAAUUAACCCAUGUCAC [LRO Sensor-off var1-11 mod of Stov1-13-A1 by Brourd] (Eterna round: R97, puzzle: Sensor, turn-off variant 1) | 15.1 | 15.6 | –
